Consider three molecules from US20040224408A1, “THAP proteins as nuclear receptors for chemokines and roles in transcriptional regulation, cell proliferation and cell differentiation” (published 2004).

Data set [1] concerns the target T1, THAP1ΔQRCRR mutant (deletion of residues 168-172) (human, UniProt Q9NVV9 1-213).
T1 construct: Tested as a Gal4-BD fusion (pGBKT7), as in vitro translated protein and as an EGFP fusion; also called THAP1?QRCRR; THAP1?(QRCRR)
T1 sequence: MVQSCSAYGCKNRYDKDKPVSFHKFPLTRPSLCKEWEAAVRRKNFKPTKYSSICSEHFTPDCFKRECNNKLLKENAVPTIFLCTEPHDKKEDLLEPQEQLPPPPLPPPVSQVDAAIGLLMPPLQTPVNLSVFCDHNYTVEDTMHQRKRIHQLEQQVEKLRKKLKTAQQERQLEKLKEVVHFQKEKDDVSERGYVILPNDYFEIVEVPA
Nature of the data set: in vitro THAP1/Par4 interaction assay (GST pull-down with GST-Par4DD). The protocol: (§1) THAP1 mutants were also tested in the in vitro THAP1/Par4 interaction assay. In vitro-translated THAP1 mutants were generated with the TNT-coupled reticulocyte lysate system (Promega, Madison, Wis., USA) using pGBKT7-THAP1-C1, -C2, -C3, -N1, -N2 or -N3 vector as template. 25 μl of each ³⁵S-labelled THAP1 mutant was incubated with immobilized GST or GST-Par4 protein overnight at 4° C., in the following binding buffer: 10 mM NaPO4 pH 8.0, 140 mM NaCl, 3 mM MgCl2, 1 mM dithiothreitol (DTT), 0.05% NP40, and 0.2 mM phenylmethyl sulphonyl fluoride (PMSF), 1 mM Na Vanadate, 50 mM β Glycerophosphate, 25 μg/ml chimotrypsine, 5 μg/ml aprotinin, 10 μg/ml Leupeptin. Beads were then washed 5 times in 1 ml binding buffer. Bound proteins were eluted with 2×Laemmli SDS-PAGE sample buffer, fractionated by 10% SDS-PAGE and visualized by fluorography using Amplify (Amersham Pharmacia Biotech). As expected, THAP1-C1, -C2, -C3, -and -N3 interacted with GST/Par4DD (FIG. 4B).
for mutant THAP1ΔQRCRR. The resulting PCR fragments were digested with EcoRI and BamHI, and cloned in frame downstream of the Gal4 Binding Domain (Gal4-BD) in pGBKT7 two-hybrid vector (Clontech) to generate pGBKT7-THAP1-RR/AA and −Δ(QRCRR), or downstream of the Enhanced Green Fluorescent Protein (EGFP) ORF in pEGFP.C2 vector (Clontech) to generate pEGFP.C2-THAP1-RR/AA and −Δ(QRCRR). […]

Data set [2] addresses T2, THAP1-N1 deletion mutant (amino acids 1-90) (human, UniProt Q9NVV9 1-90).
T2 construct: Tested as a Gal4-BD or Gal4-AD fusion, as in vitro translated 35S-labelled protein and as an EGFP fusion
T2 sequence: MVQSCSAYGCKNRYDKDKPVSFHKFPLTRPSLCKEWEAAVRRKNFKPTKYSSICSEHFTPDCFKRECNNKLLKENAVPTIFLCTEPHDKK
Briefly: GST pull-down, immobilized GST-Par4DD, in vitro translated 35S-labelled mutant. The protocol: as §1

For data set [3], the target named is T3, THAP1-N2 deletion mutant (amino acids 1-166) (human, UniProt Q9NVV9 1-166).
T3 construct: Tested as a Gal4-BD or Gal4-AD fusion, as in vitro translated 35S-labelled protein and as an EGFP fusion
T3 sequence: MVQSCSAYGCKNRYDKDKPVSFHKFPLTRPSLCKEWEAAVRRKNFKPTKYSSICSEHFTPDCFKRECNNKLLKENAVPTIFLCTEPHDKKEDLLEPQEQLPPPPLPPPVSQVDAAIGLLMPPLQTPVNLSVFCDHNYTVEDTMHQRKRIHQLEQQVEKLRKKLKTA
Described as above. The protocol: as §1

The target of data set [4] is T4, THAP1 THAP domain (Homo sapiens, UniProt Q9NVV9 SEQ:1-90).
T4 sequence: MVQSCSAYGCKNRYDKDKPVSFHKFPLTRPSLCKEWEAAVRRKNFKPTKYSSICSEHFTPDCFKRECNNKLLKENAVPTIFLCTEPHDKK
Briefly: EMSA; also no competition at 50-250x molar excess. Conditions: tags: C-terminal His6 (pET-21c); label: 32P. The protocol:
To confirm that the THAP domain is a novel sequence specific DNA-binding domain, electrophoretic mobility shift assays (EMSA) were carried out using wild-type or mutant THAP domain responsive elements (THRE) determined by SELEX (see Example 28 and FIGS. 18 and 24). Double-stranded probes used in EMSA experiments were purified on 12% polyacrylamide gels, ³²P end labeled with T4 polynucleotide kinase and quantified by Cerenkov counting. About 20 ng of purified THAP domain from human THAP1 (prepared as described in Example 28) was incubated with 30000 cpm of the appropriate probe (about 2 ng). Binding reactions were carried out for 10 minutes at room temperature in 20 μl binding buffer (20 mM Tris-HCl pH 7.5, 100 mM KCl, 0.1% NP-40, 100 μg/ml BSA, 2.5 mM DTT, 5% glycerol, 200 ng poly (dI-dC)). Electrophoresis was performed on 8% (29:1) polyacrylamide gels containing 5% glycerol. Gels were run in 0.25×TBE at 150V and 4° C., dried and exposed on a phosphoimager screen (Molecular Dynamics). […]
(In general: In EMSA bound probe runs differently from free probe, usually more slowly.)

For data set [5], the target named is T4, THAP1 THAP domain. Nature of the data set: EMSA; 20 mM Tris-HCl pH 7.5, 100 mM KCl, poly(dI-dC), room temperature; abrogated by 1,10-phenanthroline, restored by Zn; self-competed by 50-250x unlabelled probe. Conditions: tags: C-terminal His6 (pET-21c); label: 32P. The protocol:
Binding reactions were carried out for 10 minutes at room temperature in 20 μl binding buffer (20 mM Tris-HCl pH 7.5, 100 mM KCl, 0.1% NP-40, 100 μg/ml BSA, 2.5 mM DTT, 5% glycerol, 200 ng poly (dI-dC)). Electrophoresis was performed on 8% (29:1) polyacrylamide gels containing 5% glycerol. Gels were run in 0.25×TBE at 150V and 4° C., dried and exposed on a phosphoimager screen (Molecular Dynamics). Sequences of wild type and mutant THRE oligonucleotides used in EMSA experiments were as follow (mutations are indicated in bold): wild-type probe 3, 5′-[…]-3′ (SEQ ID NO: 313); mutant probe 3mut1, 5′-[…]-3′ (SEQ ID NO: 314); mutant probe 3mut3, 5′-[…]-3′ (SEQ ID NO: 319); mutant probe 3mut4, 5′-[…]-3′ (SEQ ID NO: 320); mutant probe 3mut14, 5′-[…]-3′ (SEQ ID NO: 321); mutant probe 3mut5, 5′-[…]-3′ (SEQ ID NO: 322).
For competition experiments, 50-, 150-, and 250-fold molar excess of unlabelled wild-type (THRE competitor, probe 3) or mutant (non-specific competitor, probe 3mut1) THRE oligonucleotides were added to the reaction mixture just before the addition of the probe.
Since the THAP domain is characterized by a C2-CH conserved motif that may function as a Zn-binding site, we then determined whether DNA-binding activity of the THAP domain is Zn-dependent. […]

B1: GST-Par4DD fusion protein (pGEX-2T-Par4DD, Par4 amino acids 250-342) (other)
chain: GFPRYNRDANVSGTLVSSSTLEKKIEDLEKEVVTERQENLRLVRLMQDKEEMIGKLKEEIDLLNRDLDDIEDENEQLKQENKTLLKVVGQLTR
notes: Expressed in E. coli DH5alpha and immobilized on glutathione sepharose; not shown: Glutathione S-transferase (GST) encoded by the pGEX-2T prokaryotic expression vector (Amersham Pharmacia Biotech); N-ter
On to B1, for which the binding result in data set [1], in data set [2] and in data set [3] was “no binding” in each case.

B2: 3mut1 (dsDNA)
DNA 1: AGCAAGTAATTTCAAACTACTTCAT
DNA 2: ATGAAGTAGTTTGAAATTACTTGCT
Regarding B2, in the data set with THAP1 THAP domain [4], the binding result was “no binding”.

B3: wild-type THRE probe 3 (dsDNA)
DNA 1: AGCAAGTAAGGGCAAACTACTTCAT
DNA 2: ATGAAGTAGTTTGCCCTTACTTGCT
On to B3, for which the binding result in the data set with THAP1 THAP domain [5] was “binds”.
